Data as given in paper PMC6737903, “The Hox gene Abdominal-B uses Doublesex^F as a cofactor to promote neuroblast apoptosis in the Drosophila central nervous system” (Development (Cambridge, England), 2019).

Biological target: T1, His-Dsx^CR (Dsx common region, aa residues 1-397) (Drosophila, UniProt P23023 1-397)
T1 construct: Doublesex (Dsx), Drosophila, region common to the male and female isoforms, aa residues 1-397; source: bacterially expressed (0.5 mM IPTG, 18°C, 2 h), cell lysate for the pulldown; purified and dialyzed for EMSA; not shown: His tag, N-terminal, kept
T1 sequence (P23023 1-397): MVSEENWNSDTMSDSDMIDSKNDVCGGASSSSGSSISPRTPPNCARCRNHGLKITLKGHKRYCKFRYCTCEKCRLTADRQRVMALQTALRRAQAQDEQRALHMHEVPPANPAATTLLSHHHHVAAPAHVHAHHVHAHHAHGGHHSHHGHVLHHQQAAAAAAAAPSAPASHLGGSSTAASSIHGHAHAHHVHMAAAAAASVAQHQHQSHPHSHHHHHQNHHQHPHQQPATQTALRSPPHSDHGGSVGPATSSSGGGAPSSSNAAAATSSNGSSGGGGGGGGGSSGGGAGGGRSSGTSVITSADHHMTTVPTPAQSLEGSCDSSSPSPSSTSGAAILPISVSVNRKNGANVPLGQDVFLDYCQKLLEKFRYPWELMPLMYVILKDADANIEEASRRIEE
Assay: pull-down; GST pulldown: GST-tagged AbdB proteins or GST alone as bait; bacterially expressed His-tagged Dsx proteins as input cell lysates; Western blot; three repetitions
Conditions: one partner purified

B1: GST-AbdB-N (truncated version of AbdB-r, aa residues 89-270) (domain or fragment)
chain: not shown
notes: Abdominal-B (AbdB), Drosophila, regulatory isoform AbdB-r, aa residues 89-270; printed length of AbdB-r by the limits: 270; numbers count on: the AbdB-r isoform; The results say that AbdB-N lacks the first 89 amino acids; the methods give aa residues 89-270; also called GST-tagged AbdB-N; source: bacterially expressed (0.5 mM IPTG, 18°C, 2 h); GST-tagged bait in the pulldown; used as protein (50 …)
binding result: binds
